# In IntAct's records for PubMed 12925767:
# B1: DASH complex subunit DAM1 (Saccharomyces cerevisiae), P53267 (parent)
# chain: MSEDKAKLGTTRSATEYRLSIGSAPTSRRSSMGESSSLMKFADQEGLTSSVGEYNENTIQQLLLPKIRELSDSIITLDSNFTRLNFIHESLADLNESLGSLLYGIMSNSWCVEFSQAPHDIQDDLIAIKQLKSLEDEKNNLVMELSNMERGIKRKKDEQGENDLAKASQNKQFNQPLFPSSQVRKYRSYDNRDKRKPSKIGNNLQVENEEDYEDDTSSEASFVLNPTNIGMSKSSQGHVTKTTRLNNNTNSKLRRKSILHTIRNSIASGADLPIENDNVVNLGDLHPNNRISLGSGAARVVNGPVTKNRNSMFSGRAERKPTESRHSVAKKTEKKINTRPPFR
# Variants of: B1
# Settings: with med21_yeast SRB7, P47822
# Chain of med21_yeast SRB7, P47822 (P47822 whole entry): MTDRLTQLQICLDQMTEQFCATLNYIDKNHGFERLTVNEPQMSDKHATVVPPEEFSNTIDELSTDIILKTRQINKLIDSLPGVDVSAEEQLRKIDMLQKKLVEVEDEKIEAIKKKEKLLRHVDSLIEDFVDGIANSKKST
row,Variant,effect of a mutation on the interaction
1,MSEDKAKLGTTRSATEYRLDIGSAPTSRRSSMGESSSLMKFADQEGLTSSVGEYNENTIQQLLLPKIRELSDSIITLDSNFTRLNFIHESLADLNESLGSLLYGIMSNSWCVEFSQAPHDIQDDLIAIKQLKSLEDEKNNLVMELSNMERGIKRKKDEQGENDLAKASQNKQFNQPLFPSSQVRKYRSYDNRDKRKPSKIGNNLQVENEEDYEDDTSSEASFVLNPTNIGMSKSSQGHVTKTTRLNNNTNSKLRRKDILHTIRNDIASGADLPIENDNVVNLGDLHPNNRIDLGSGAARVVNGPVTKNRNSMFSGRAERKPTESRHSVAKKTEKKINTRPPFR [S20D;S257D;S265D;S292D],causing an interaction

# Variants of: B1
# Settings: with nup82_yeast NUP82, P40368
# Chain of nup82_yeast NUP82, P40368 (P40368 whole entry): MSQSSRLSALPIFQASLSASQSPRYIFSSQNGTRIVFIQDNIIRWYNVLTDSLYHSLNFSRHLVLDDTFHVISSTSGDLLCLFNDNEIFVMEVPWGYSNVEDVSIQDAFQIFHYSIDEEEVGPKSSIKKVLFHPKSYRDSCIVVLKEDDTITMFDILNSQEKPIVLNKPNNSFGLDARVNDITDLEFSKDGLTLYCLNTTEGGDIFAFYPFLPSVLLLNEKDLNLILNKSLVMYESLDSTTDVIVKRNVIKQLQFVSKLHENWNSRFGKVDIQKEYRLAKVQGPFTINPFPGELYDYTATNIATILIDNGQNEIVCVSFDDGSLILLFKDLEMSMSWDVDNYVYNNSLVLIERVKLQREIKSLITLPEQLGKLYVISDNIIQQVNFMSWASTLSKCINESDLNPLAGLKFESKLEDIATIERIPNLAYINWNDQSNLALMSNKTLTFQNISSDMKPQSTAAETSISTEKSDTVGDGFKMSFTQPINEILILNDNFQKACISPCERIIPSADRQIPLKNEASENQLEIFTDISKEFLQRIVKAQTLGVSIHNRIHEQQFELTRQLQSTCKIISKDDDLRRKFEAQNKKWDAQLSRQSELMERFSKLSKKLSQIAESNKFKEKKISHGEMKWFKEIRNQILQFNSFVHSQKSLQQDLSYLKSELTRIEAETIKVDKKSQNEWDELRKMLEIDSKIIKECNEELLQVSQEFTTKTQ
row,Variant,effect of a mutation on the interaction
1,MSEDKAKLGTTRSATEYRLAIGSAPTSRRSSMGESSSLMKFADQEGLTSSVGEYNENTIQQLLLPKIRELSDSIITLDSNFTRLNFIHESLADLNESLGSLLYGIMSNSWCVEFSQAPHDIQDDLIAIKQLKSLEDEKNNLVMELSNMERGIKRKKDEQGENDLAKASQNKQFNQPLFPSSQVRKYRSYDNRDKRKPSKIGNNLQVENEEDYEDDTSSEASFVLNPTNIGMSKSSQGHVTKTTRLNNNTNSKLRRKAILHTIRNAIASGADLPIENDNVVNLGDLHPNNRIALGSGAARVVNGPVTKNRNSMFSGRAERKPTESRHSVAKKTEKKINTRPPFR [S20A;S257A;S265A;S292A],causing an interaction

# Variants of: B1
# Settings: with bmh1_yeast BMH1, P29311
# Chain of bmh1_yeast BMH1, P29311 (P29311 whole entry): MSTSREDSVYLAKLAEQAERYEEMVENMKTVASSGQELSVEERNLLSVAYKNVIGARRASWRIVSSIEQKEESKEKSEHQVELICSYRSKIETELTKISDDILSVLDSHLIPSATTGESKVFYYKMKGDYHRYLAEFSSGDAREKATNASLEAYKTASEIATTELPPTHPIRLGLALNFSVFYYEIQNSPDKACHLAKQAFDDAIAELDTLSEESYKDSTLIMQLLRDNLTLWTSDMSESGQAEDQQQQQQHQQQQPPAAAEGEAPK
row,Variant,effect of a mutation on the interaction
1,MSEDKAKLGTTRSATEYRLAIGSAPTSRRSSMGESSSLMKFADQEGLTSSVGEYNENTIQQLLLPKIRELSDSIITLDSNFTRLNFIHESLADLNESLGSLLYGIMSNSWCVEFSQAPHDIQDDLIAIKQLKSLEDEKNNLVMELSNMERGIKRKKDEQGENDLAKASQNKQFNQPLFPSSQVRKYRSYDNRDKRKPSKIGNNLQVENEEDYEDDTSSEASFVLNPTNIGMSKSSQGHVTKTTRLNNNTNSKLRRKAILHTIRNAIASGADLPIENDNVVNLGDLHPNNRIALGSGAARVVNGPVTKNRNSMFSGRAERKPTESRHSVAKKTEKKINTRPPFR [S20A;S257A;S265A;S292A],causing an interaction
